We go through 1 variant from IntAct's records for PubMed 18056643.

The labels stand for the following.
B1: Tyrosine-protein phosphatase non-receptor type 22 (Homo sapiens), Q9Y2R2 (parent)
chain: MDQREILQKFLDEAQSKKITKEEFANEFLKLKRQSTKYKADKTYPTTVAEKPKNIKKNRYKDILPYDYSRVELSLITSDEDSSYINANFIKGVYGPKAYIATQGPLSTTLLDFWRMIWEYSVLIIVMACMEYEMGKKKCERYWAEPGEMQLEFGPFSVSCEAEKRKSDYIIRTLKVKFNSETRTIYQFHYKNWPDHDVPSSIDPILELIWDVRCYQEDDSVPICIHCSAGCGRTGVICAIDYTWMLLKDGIIPENFSVFSLIREMRTQRPSLVQTQEQYELVYNAVLELFKRQMDVIRDKHSGTESQAKHCIPEKNHTLQADSYSPNLPKSTTKAAKMMNQQRTKMEIKESSSFDFRTSEISAKEELVLHPAKSSTSFDFLELNYSFDKNADTTMKWQTKAFPIVGEPLQKHQSLDLGSLLFEGCSNSKPVNAAGRYFNSKVPITRTKSTPFELIQQRETKEVDSKENFSYLESQPHDSCFVEMQAQKVMHVSSAELNYSLPYDSKHQIRNASNVKHHDSSALGVYSYIPLVENPYFSSWPPSGTSSKMSLDLPEKQDGTVFPSSLLPTSSTSLFSYYNSHDSLSLNSPTNISSLLNQESAVLATAPRIDDEIPPPLPVRTPESFIVVEEAGEFSPNVPKSLSSAVKVKIGTSLEWGGTSEPKKFDDSVILRPSKSVKLRSPKSELHQDRSSPPPPLPERTLESFFLADEDCMQAQSIETYSTSYPDTMENSTSSKQTLKTPGKSFTRSKSLKILRNMKKSICNSCPPNKPAESVQSNNSSSFLNFGFANRFSKPKGPRNPPPTWNI

The variants in the assay derive from B1. The settings on record: with kpcd_human PRKCD.
As for S35E, the “effect of a mutation on the interaction” value was “decreasing interaction”.
